Assay results taken from patent US20080153130.

Key:
[1] = molecular target: T1, UBI::KALA hybrid protein substrate (ubiquitin fused to the 18-amino-acid KALA peptide)
T1 chain: DPGDKDGDGYISAAEAMA

[2] = molecular target: His6UBI::ElisaC hybrid protein (six histidines, ubiquitin and the C-terminal fragment of UBP1ΔC protease)

B1: UBP1ΔC2 protease (UBP1 truncated by 98 N-terminal amino acids, mutation C Gln754Leu, six histidine residues at its C-end) (protein)
chain: GGFIAGLVNDGNTCFMNSVLQSLASSRELMEFLDNNVIRTYEEIEQNEHNEEGNGQESAQDEATHKKNTRKGGKVYGKHKKKLNRKSSSKEDEEKSQEPDITFSVALRDLLSALNAKYYRDKPYFKTNSLLKAMSKSPRKNILLGYDQEDAQEFFQNILAELESNVKSLNTEKLDTTPVAKSELPDDALVGQLNLGEVGTVYIPTEQIDPNSILHDKSIQNFTPFKLMTPLDGITAERIGCLQCGENGGIRYSVFSGLSLNLPNENIGSTLKLSQLLSDWSKPEIIEGVECNRCALTAAHSHLFGQLKEFEKKPEGSIPEKPINAVKDRVHQIEEVLAKPVIDDEDYKKLHTANMVRKCSKSKQILISRPPPLLSIHINRSVFDPRTYMIRKNNSKVLFKSRLNLAPWCCDINEINLDARLPMSKKEKAAQQDSSEDENIGGEYYTKLHERFEQEFEDSEEEKEYDDAEGNYASHYNHTKDISNYDPLNGEVDGVTSDDEDEYIEETDALGNTIKKRIIEHSDVENENVKDNEELQEIDNVSLDEPKINVEDQLETSSDEEDVIPAPPINYARSFSTVPATPLTYSLRSVIVHYGTHNYGHYIAFRKYRGCWWRISDETVYVVDEAEVLSTPGVFMLFYEYDFDEETGKMKDDLEAILSNNEEDDEKEQEQKGVQEPKESQEQGEGEEQEEGQEQMKFERTEDHRDISGKDVNGSHHHHHH
proteolytic activity (cleavage of ubiquitin from the hybrid substrate, SDS-PAGE image analysis), fold over UBP1ΔC [1]: the enzyme UBP1ΔC2 is 5-6 times more active than mutant UBP1 AC
preparative digestion of the hybrid protein, then Ni-NTA chromatography and SDS-PAGE [2]: High purity ElisaC protein was obtained, cleaved from 6HisUBI
proteolytic activity (cleavage of ubiquitin from the hybrid substrate, SDS-PAGE image analysis), fold over UBP1ΔC [2]: the enzyme UBP1ΔC2 is 5-6 times more active than mutant UBP1 AC

B2: UBP1ΔC protease (UBP1 deletion mutant with mutation C at position 754) (protein)
chain: GGDHLNYIVESVSEMTTNFRNNNSLSRWLPRSKFTHLDEEILKRGGFIAGLVNDGNTCFMNSVLQSLASSRELMEFLDNNVIRTYEEIEQNEHNEEGNGQESAQDEATHKKNTRKGGKVYGKHKKKLNRKSSSKEDEEKSQEPDITFSVALRDLLSALNAKYYRDKPYFKTNSLLKAMSKSPRKNILLGYDQEDAQEFFQNILAELESNVKSLNTEKLDTTPVAKSELPDDALVGQLNLGEVGTVYIPTEQIDPNSILHDKSIQNFTPFKLMTPLDGITAERIGCLQCGENGGIRYSVFSGLSLNLPNENIGSTLKLSQLLSDWSKPEIIEGVECNRCALTAAHSHLFGQLKEFEKKPEGSIPEKPINAVKDRVHQIEEVLAKPVIDDEDYKKLHTANMVRKCSKSKQILISRPPPLLSIHINRSVFDPRTYMIRKNNSKVLFKSRLNLAPWCCDINEINLDARLPMSKKEKAAQQDSSEDENIGGEYYTKLHERFEQEFEDSEEEKEYDDAEGNYASHYNHTKDISNYDPLNGEVDGVTSDDEDEYIEETDALGNTIKKRIIEHSDVENENVKDNEELQEIDNVSLDEPKINVEDQLETSSDEEDVIPAPPINYARSFSTVPATPLTYSLRSVIVHYGTHNYGHYIAFRKYRGCWWRISDETVYVVDEAEVLSTPGVFMLFYEYDFDEETGKMKDDLEAILSNNEEDDEKEQEQKGVQEPKESQEQGEGEEQEEGQEQMKFERTEDHRDISGKDVNGSHHHHHH
proteolytic activity (cleavage of ubiquitin from the hybrid substrate, SDS-PAGE image analysis), reference enzyme [1]: the enzyme UBP1ΔC2 is 5-6 times more active than mutant UBP1 AC
proteolytic activity (cleavage of ubiquitin from the hybrid substrate, SDS-PAGE image analysis), reference enzyme [2]: the enzyme UBP1ΔC2 is 5-6 times more active than mutant UBP1 AC
